A short description of data set [1]: immunofluorescence, % cells with plasma membrane CD24, MDA-MB-231. To be noted: glycan lost; control: wild type ER-tag CD24.
Data set [2] is described as follows: immunofluorescence, % cells with plasma membrane CD24, MCF-7. The following applies: glycan lost; control: wild type ER-tag CD24.
Data set [3] can be described thus: immunofluorescence, % cells with plasma membrane CD24, HEK293T. The following applies: glycan lost; control: wild type ER-tag CD24.
Data set [4] is described as follows: immunofluorescence, % cells with plasma membrane CD24, Hs578T. The following applies: glycan lost; control: wild type ER-tag CD24.
The nature of data set [5]: immunofluorescence, nuclear localisation, all cell lines. To be noted: glycan lost; control: wild type ER-tag CD24.
Data set [6] is described as follows: confocal immunofluorescence, % cells with plasma membrane CD24, MDA-MB-231. To be noted: glycan changed form; control: untreated cells, same construct.
Data set [7] in a line: confocal immunofluorescence, plasma membrane vs cytoplasm, HEK293T. The following applies: glycan changed form; control: untreated cells, same construct.
Data set [8] can be described thus: confocal immunofluorescence, % cells with plasma membrane CD24, Hs578T. To be noted: glycan changed form; control: untreated cells, same construct.
Data set [9] in a line: confocal immunofluorescence, plasma membrane vs cytoplasm, MCF-7. The following applies: glycan changed form; control: untreated cells, same construct.

B1: CD24: N36Q (protein)
parent chain: MGRAMVARLGLGLLLLALLLPTQIYSSETTTGTSSNSSQSTSNSGLAPNPTNATTKAAGGALQSTASLFVVSLSLLHLYS
B1: the localisation_or_trafficking result in data set [1] was “no change”; in data set [2], “no change”; in [3], “decreases”; in [4] it was “decreases”; in data set [5], “no change”.

B2: CD24: N36,52Q (protein)
parent chain: B1 parent chain
Take B2: the localisation_or_trafficking entry in data set [1] is reported as “decreases”; in data set [2], “no change”; in data set [3], “decreases”; in data set [4] it was “decreases”; in data set [5], “no change”.

B3: CD24: N52Q (protein)
parent chain: B1 parent chain
For the protein B3, the localisation_or_trafficking result in data set [1] is reported as “decreases”; in data set [2] it was “no change”; in [3], “decreases”; in [4], “decreases”; in [5], “no change”.

B4: CD24: kifunensine, WT-CD24 (protein)
parent chain: B1 parent chain
As for B4, the localisation_or_trafficking result in [6] is on record as “decreases”.

B5: CD24: kifunensine, wild type CD24 (protein)
parent chain: B1 parent chain
Turning to B5, the localisation_or_trafficking entry in data set [7] is on record as “decreases”; in [9], “no change”. Further, the “localisation_or_trafficking, other: % decrease in cells with membrane CD24” value in data set [8] is “decreases”.

The values above are taken from article PMC8347636.
